According to US20140087995A1 (published 2014):
Numbered stars: 1 amine (or outer) side, 2 acyl side, 3 side chain; on linkers, the order of the positions; unused ones are H or OH. Bridge positions count the residues as written; N and C are the ends. Side chains are listed from the residue outwards. Ends that are not written are not given here. * marks the point of attachment. C20 diacid = O=C(O)CCCCCCCCCCCCCCCCCCC(=O)*; γGlu = O=C(O)[C@H](CCC(=O)[*:2])N[*:1]; AEEA = NCCOCCOCC(=O)O

Target: T1, human amylin receptor (amylin 3(a) receptor: human calcitonin receptor with RAMP-3) (human, UniProt P30988 25-474; O60896 24-148)
T1 construct: whole, on cells; also called hAmylin-R; hAmylinR
T1 sequence (looked up) 1: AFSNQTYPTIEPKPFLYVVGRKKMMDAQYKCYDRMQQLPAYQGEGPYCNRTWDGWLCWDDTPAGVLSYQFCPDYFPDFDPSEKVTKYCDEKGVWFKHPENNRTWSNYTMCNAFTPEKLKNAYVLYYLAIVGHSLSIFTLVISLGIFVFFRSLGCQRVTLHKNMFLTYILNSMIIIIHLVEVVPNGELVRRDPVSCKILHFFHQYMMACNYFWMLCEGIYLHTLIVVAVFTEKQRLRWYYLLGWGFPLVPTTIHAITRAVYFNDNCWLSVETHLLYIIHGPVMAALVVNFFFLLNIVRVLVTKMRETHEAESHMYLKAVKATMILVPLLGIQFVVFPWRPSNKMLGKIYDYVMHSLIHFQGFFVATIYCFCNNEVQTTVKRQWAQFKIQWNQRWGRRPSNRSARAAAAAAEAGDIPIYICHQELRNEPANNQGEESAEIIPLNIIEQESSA
T1 sequence (looked up) 2: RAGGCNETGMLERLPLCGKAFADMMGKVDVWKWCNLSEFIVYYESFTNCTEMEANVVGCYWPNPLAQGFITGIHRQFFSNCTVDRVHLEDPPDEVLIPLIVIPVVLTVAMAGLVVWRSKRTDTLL
Experiment: SPA displacement of 125I-rat amylin, hAmylin 3(a) receptor membranes
How it was run: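 SPA beads + BHK amylin 3(a)/CRE-luc membranes, 35 ng/μL final; buffer 50 mM Hepes pH 7.4, 1 mM CaCl2, 5 mM MgCl₂, 0.1% OA, 0.02% Tween20. 120 min, 25° C, shaken; scintillation count. IC₅₀ by one-site binding competition fit, taken as receptor affinity.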

Row | Binder | IC50
1 | K([AEEA-C20 diacid])CNTATCATQRLAHFLRHSSPNFGAIPSSTNVGSNTY-NH2 (disulfide 2-7; N-terminus assumed; SMILES CC[C@H](C)[C@H](NC(=O)[C@H](C)NC(=O)CNC(=O)[C@H](Cc1ccccc1)NC(=O)[C@H](CC(N)=O)NC(=O)[C@@H]1CCCN1C(=O)[C@H](CO)NC(=O)[C@H](CO)NC(=O)[C@H](Cc1c[nH]cn1)NC(=O)[C@H](CCCNC(=N)N)NC(=O)[C@H](CC(C)C)NC(=O)[C@H](Cc1ccccc1)NC(=O)[C@H](Cc1c[nH]cn1)NC(=O)[C@H](C)NC(=O)[C@H](CC(C)C)NC(=O)[C@H](CCCNC(=N)N)NC(=O)[C@H](CCC(N)=O)NC(=O)[C@@H](NC(=O)[C@H](C)NC(=O)[C@@H]1CSSC[C@H](NC(=O)[C@@H](N)CCCCNC(=O)COCCOCCNC(=O)CCCCCCCCCCCCCCCCCCC(=O)O)C(=O)N[C@@H](CC(N)=O)C(=O)N[C@@H]([C@@H](C)O)C(=O)N[C@@H](C)C(=O)N[C@@H]([C@@H](C)O)C(=O)N1)[C@@H](C)O)C(=O)N1CCC[C@H]1C(=O)N[C@@H](CO)C(=O)N[C@@H](CO)C(=O)N[C@H](C(=O)N[C@@H](CC(N)=O)C(=O)N[C@H](C(=O)NCC(=O)N[C@@H](CO)C(=O)N[C@@H](CC(N)=O)C(=O)N[C@H](C(=O)N[C@@H](Cc1ccc(O)cc1)C(N)=O)[C@@H](C)O)C(C)C)[C@@H](C)O, also called 90; compound 90) [N^ε1-[2-[2-[2-(19-carboxynonadecanoylamino)ethoxy]ethoxy]acetyl]-[His14,Arg17,Pro21,Pro27]-h-amylin] | 0.061 nM
2 | K([AEEA-AEEA-γGlu-C20 diacid])CNTATCATQRLANFLRHSSPNFGAIPSSTNVGHNTY-NH2 (disulfide 2-7; N-terminus assumed; SMILES CC[C@H](C)[C@H](NC(=O)[C@H](C)NC(=O)CNC(=O)[C@H](Cc1ccccc1)NC(=O)[C@H](CC(N)=O)NC(=O)[C@@H]1CCCN1C(=O)[C@H](CO)NC(=O)[C@H](CO)NC(=O)[C@H](Cc1c[nH]cn1)NC(=O)[C@H](CCCNC(=N)N)NC(=O)[C@H](CC(C)C)NC(=O)[C@H](Cc1ccccc1)NC(=O)[C@H](CC(N)=O)NC(=O)[C@H](C)NC(=O)[C@H](CC(C)C)NC(=O)[C@H](CCCNC(=N)N)NC(=O)[C@H](CCC(N)=O)NC(=O)[C@@H](NC(=O)[C@H](C)NC(=O)[C@@H]1CSSC[C@H](NC(=O)[C@@H](N)CCCCNC(=O)COCCOCCNC(=O)COCCOCCNC(=O)CC[C@H](NC(=O)CCCCCCCCCCCCCCCCCCC(=O)O)C(=O)O)C(=O)N[C@@H](CC(N)=O)C(=O)N[C@@H]([C@@H](C)O)C(=O)N[C@@H](C)C(=O)N[C@@H]([C@@H](C)O)C(=O)N1)[C@@H](C)O)C(=O)N1CCC[C@H]1C(=O)N[C@@H](CO)C(=O)N[C@@H](CO)C(=O)N[C@H](C(=O)N[C@@H](CC(N)=O)C(=O)N[C@H](C(=O)NCC(=O)N[C@@H](Cc1c[nH]cn1)C(=O)N[C@@H](CC(N)=O)C(=O)N[C@H](C(=O)N[C@@H](Cc1ccc(O)cc1)C(N)=O)[C@@H](C)O)C(C)C)[C@@H](C)O, also called 97; compound 97) | 0.568 nM
3 | K([AEEA-AEEA-γGlu-C20 diacid])CNTATCATQRLANFLRHSSPNFGAIPSSTNVGSETY-NH2 (disulfide 2-7; N-terminus assumed; SMILES CC[C@H](C)[C@H](NC(=O)[C@H](C)NC(=O)CNC(=O)[C@H](Cc1ccccc1)NC(=O)[C@H](CC(N)=O)NC(=O)[C@@H]1CCCN1C(=O)[C@H](CO)NC(=O)[C@H](CO)NC(=O)[C@H](Cc1c[nH]cn1)NC(=O)[C@H](CCCNC(=N)N)NC(=O)[C@H](CC(C)C)NC(=O)[C@H](Cc1ccccc1)NC(=O)[C@H](CC(N)=O)NC(=O)[C@H](C)NC(=O)[C@H](CC(C)C)NC(=O)[C@H](CCCNC(=N)N)NC(=O)[C@H](CCC(N)=O)NC(=O)[C@@H](NC(=O)[C@H](C)NC(=O)[C@@H]1CSSC[C@H](NC(=O)[C@@H](N)CCCCNC(=O)COCCOCCNC(=O)COCCOCCNC(=O)CC[C@H](NC(=O)CCCCCCCCCCCCCCCCCCC(=O)O)C(=O)O)C(=O)N[C@@H](CC(N)=O)C(=O)N[C@@H]([C@@H](C)O)C(=O)N[C@@H](C)C(=O)N[C@@H]([C@@H](C)O)C(=O)N1)[C@@H](C)O)C(=O)N1CCC[C@H]1C(=O)N[C@@H](CO)C(=O)N[C@@H](CO)C(=O)N[C@H](C(=O)N[C@@H](CC(N)=O)C(=O)N[C@H](C(=O)NCC(=O)N[C@@H](CO)C(=O)N[C@@H](CCC(=O)O)C(=O)N[C@H](C(=O)N[C@@H](Cc1ccc(O)cc1)C(N)=O)[C@@H](C)O)C(C)C)[C@@H](C)O, also called 25; compound 25) | 0.768 nM
4 | K([AEEA-AEEA-γGlu-C20 diacid])CNTATCATQRLANFLRHSSPNFGAIPSSTNVGRNTY-NH2 (disulfide 2-7; N-terminus assumed; SMILES CC[C@H](C)[C@H](NC(=O)[C@H](C)NC(=O)CNC(=O)[C@H](Cc1ccccc1)NC(=O)[C@H](CC(N)=O)NC(=O)[C@@H]1CCCN1C(=O)[C@H](CO)NC(=O)[C@H](CO)NC(=O)[C@H](Cc1c[nH]cn1)NC(=O)[C@H](CCCNC(=N)N)NC(=O)[C@H](CC(C)C)NC(=O)[C@H](Cc1ccccc1)NC(=O)[C@H](CC(N)=O)NC(=O)[C@H](C)NC(=O)[C@H](CC(C)C)NC(=O)[C@H](CCCNC(=N)N)NC(=O)[C@H](CCC(N)=O)NC(=O)[C@@H](NC(=O)[C@H](C)NC(=O)[C@@H]1CSSC[C@H](NC(=O)[C@@H](N)CCCCNC(=O)COCCOCCNC(=O)COCCOCCNC(=O)CC[C@H](NC(=O)CCCCCCCCCCCCCCCCCCC(=O)O)C(=O)O)C(=O)N[C@@H](CC(N)=O)C(=O)N[C@@H]([C@@H](C)O)C(=O)N[C@@H](C)C(=O)N[C@@H]([C@@H](C)O)C(=O)N1)[C@@H](C)O)C(=O)N1CCC[C@H]1C(=O)N[C@@H](CO)C(=O)N[C@@H](CO)C(=O)N[C@H](C(=O)N[C@@H](CC(N)=O)C(=O)N[C@H](C(=O)NCC(=O)N[C@@H](CCCNC(=N)N)C(=O)N[C@@H](CC(N)=O)C(=O)N[C@H](C(=O)N[C@@H](Cc1ccc(O)cc1)C(N)=O)[C@@H](C)O)C(C)C)[C@@H](C)O, also called 95; compound 95) | 0.967 nM
5 | K([AEEA-AEEA-γGlu-C20 diacid])CNTATCATQRLANFLRHSSPNFGAIPSSTPVGSNTY-NH2 (disulfide 2-7; N-terminus assumed; SMILES CC[C@H](C)[C@H](NC(=O)[C@H](C)NC(=O)CNC(=O)[C@H](Cc1ccccc1)NC(=O)[C@H](CC(N)=O)NC(=O)[C@@H]1CCCN1C(=O)[C@H](CO)NC(=O)[C@H](CO)NC(=O)[C@H](Cc1c[nH]cn1)NC(=O)[C@H](CCCNC(=N)N)NC(=O)[C@H](CC(C)C)NC(=O)[C@H](Cc1ccccc1)NC(=O)[C@H](CC(N)=O)NC(=O)[C@H](C)NC(=O)[C@H](CC(C)C)NC(=O)[C@H](CCCNC(=N)N)NC(=O)[C@H](CCC(N)=O)NC(=O)[C@@H](NC(=O)[C@H](C)NC(=O)[C@@H]1CSSC[C@H](NC(=O)[C@@H](N)CCCCNC(=O)COCCOCCNC(=O)COCCOCCNC(=O)CC[C@H](NC(=O)CCCCCCCCCCCCCCCCCCC(=O)O)C(=O)O)C(=O)N[C@@H](CC(N)=O)C(=O)N[C@@H]([C@@H](C)O)C(=O)N[C@@H](C)C(=O)N[C@@H]([C@@H](C)O)C(=O)N1)[C@@H](C)O)C(=O)N1CCC[C@H]1C(=O)N[C@@H](CO)C(=O)N[C@@H](CO)C(=O)N[C@H](C(=O)N1CCC[C@H]1C(=O)N[C@H](C(=O)NCC(=O)N[C@@H](CO)C(=O)N[C@@H](CC(N)=O)C(=O)N[C@H](C(=O)N[C@@H](Cc1ccc(O)cc1)C(N)=O)[C@@H](C)O)C(C)C)[C@@H](C)O, also called 96; compound 96) | 0.166 nM
